Measurements as given in article PMC10387098.
Read-outs that look alike come from different tables or passages of the source.

Experiments:
[1] = biological target: KRAS4b residues 1–169 with N-terminal cysteine, Alexa Fluor 647-labeled, GMP-PNP-bound (UniProt P01116); assay: MST; 10 μL of 5 nM Alexa Fluor 647-labeled GMP-PNP-bound KRAS mixed with 10 μL of serially diluted BRAF proteins (10 pM to 1 μM); 0.05% Tween-20; Monolith NT.115pico; three independent dilution series averaged
[2] = biological target: CRAF RBD-CRD (Homo sapiens) (UniProt P04049); details: cited from earlier work
CRAF RBD (Homo sapiens) = CRAF RBD (Homo sapiens) (UniProt P04049); details: cited from earlier work
[3] = biological target: CRAF RBD-CRD-C2 (Homo sapiens) (UniProt P04049); details: cited from earlier work
[4] = biological target: CRAF RBD-CRD (Homo sapiens) (UniProt P04049); assay: SPR; details: cited from earlier work

Kd [1] [nM]	Substance	Kd [2] [nM]	Kd (CRAF RBD (Homo sapiens)) [nM]	Kd [3] [nM]	Kd [4] [nM]
106	BRAF/14-3-3 (full length, active dimer) (from UniProt P15056 1-766) (complex)				
127	BRAF/MEK/14-3-3 (autoinhibited), as used for MST (from UniProt P15056 1-766; Q02750 1-393) (complex)				
	KRAS (from UniProt P01116)	190	21.2	188	188
